Measurements from IntAct's records for PubMed 23468526.

B1: Moesin/ezrin/radixin homolog 1 (Drosophila melanogaster (Fruit fly)), P46150 (parent)
chain: MSPKALNVRVTTMDAELEFAIQSTTTGKQLFDQVVKTIGLREVWFFGLQYTDSKGDSTWIKLYKKVMNQDVKKENPLQFRFRAKFYPEDVAEELIQDITLRLFYLQVKNAILTDEIYCPPETSVLLASYAVQARHGDHNKTTHTAGFLANDRLLPQRVIDQHKMSKDEWEQSIMTWWQEHRSMLREDAMMEYLKIAQDLEMYGVNYFEIRNKKGTDLWLGVDALGLNIYEQDDRLTPKIGFPWSEIRNISFSEKKFIIKPIDKKAPDFMFFAPRVRINKRILALCMGNHELYMRRRKPDTIDVQQMKAQAREEKNAKQQEREKLQLALAARERAEKKQQEYEDRLKQMQEDMERSQRDLLEAQDMIRRLEEQLKQLQAAKDELELRQKELQAMLQRLEEAKNMEAVEKLKLEEEIMAKQMEVQRIQDEVNAKDEETKRLQDEVEDARRKQVIAAEAAAALLAASTTPQHHHVAEDENENEEELTNGDAGGDVSRDLDTDEHIKDPIEDRRTLAERNERLHDQLKALKQDLAQSRDETKETANDKIHRENVRQGRDKYKTLREIRKGNTKRRVDQFENM
partner: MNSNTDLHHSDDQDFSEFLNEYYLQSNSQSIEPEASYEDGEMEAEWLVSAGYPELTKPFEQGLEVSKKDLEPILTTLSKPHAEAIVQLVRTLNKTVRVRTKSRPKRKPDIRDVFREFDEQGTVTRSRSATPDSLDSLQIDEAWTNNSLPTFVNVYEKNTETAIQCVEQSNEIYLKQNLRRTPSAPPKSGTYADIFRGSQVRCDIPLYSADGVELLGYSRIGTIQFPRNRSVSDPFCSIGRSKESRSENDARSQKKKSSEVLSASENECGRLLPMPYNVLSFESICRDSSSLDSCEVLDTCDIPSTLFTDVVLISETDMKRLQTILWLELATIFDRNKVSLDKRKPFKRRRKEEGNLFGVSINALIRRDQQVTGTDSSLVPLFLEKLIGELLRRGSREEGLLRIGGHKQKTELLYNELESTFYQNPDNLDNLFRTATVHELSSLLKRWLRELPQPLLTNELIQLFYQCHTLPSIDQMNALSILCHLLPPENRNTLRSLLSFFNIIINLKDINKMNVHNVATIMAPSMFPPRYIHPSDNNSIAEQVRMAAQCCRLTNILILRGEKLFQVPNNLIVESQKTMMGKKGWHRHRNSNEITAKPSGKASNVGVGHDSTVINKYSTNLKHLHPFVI

Variants of: B1
Conditions: with conu_drome conu

| effect of a mutation on the interaction | Variant |
| --- | --- |
| increasing interaction strength | MSPKALNVRVTTMDAELEFAIQSTTTGKQLFDQVVKTIGLREVWFFGLQYTDSKGDSTWIKLYKKVMNQDVKKENPLQFRFRAKFYPEDVAEELIQDITLRLFYLQVKNAILTDEIYCPPETSVLLASYAVQARHGDHNKTTHTAGFLANDRLLPQRVIDQHKMSKDEWEQSIMTWWQEHRSMLREDAMMEYLKIAQDLEMYGVNYFEIRNKKGTDLWLGVDALGLNIYEQDDRLTPKIGFPWSEIRNISFSEKKFIIKPIDKKAPDFMFFAPRVRINKRILALCMGNHELYMRRRKPDTIDVQQMKAQAREEKNAKQQEREKLQLALAARERAEKKQQEYEDRLKQMQEDMERSQRDLLEAQDMIRRLEEQLKQLQAAKDELELRQKELQAMLQRLEEAKNMEAVEKLKLEEEIMAKQMEVQRIQDEVNAKDEETKRLQDEVEDARRKQVIAAEAAAALLAASTTPQHHHVAEDENENEEELTNGDAGGDVSRDLDTDEHIKDPIEDRRTLAERNERLHDQLKALKQDLAQSRDETKETANDKIHRENVRQGRDKYKDLREIRKGNTKRRVDQFENM [T559D] |
